From article PMC8215223

B1: GFP-WT-HOOK3 [human] / GM130 (endogenous) [human (endogenous in HeLa)] (parent)
chain 1: MFSVESLERAELCESLLTWIQTFNVDAPCQTVEDLTNGVVMAQVLQKIDPAYFDENWLNRIKTEVGDNWRLKISNLKKILKGILDYNHEILGQQINDFTLPDVNLIGEHSDAAELGRMLQLILGCAVNCEQKQEYIQAIMMMEESVQHVVMTAIQELMSKESPVSAGNDAYVDLDRQLKKTTEELNEALSAKEEIAQRCHELDMQVAALQEEKSSLLAENQVLMERLNQSDSIEDPNSPAGRRHLQLQTQLEQLQEETFRLEAAKDDYRIRCEELEKEISELRQQNDELTTLADEAQSLKDEIDVLRHSSDKVSKLEGQVESYKKKLEDLGDLRRQVKLLEEKNTMYMQNTVSLEEELRKANAARSQLETYKRQVVELQNRLSEESKKADKLDFEYKRLKEKVDSLQKEKDRLRTERDSLKETIEELRCVQAQEGQLTTQGLMPLGSQESSDSLAAEIVTPEIREKLIRLQHENKMLKLNQEGSDNEKIALLQSLLDDANLRKNELETENRLVNQRLLEVQSQVEELQKSLQDQGSKAEDSVLLKKKLEEHLEKLHEANNELQKKRAIIEDLEPRFNNSSLKIEELQEALRKKEEEMKQMEERYKKYLEKAKSVIRTLDPKQNQGAAPEIQALKNQLQERDRLFHSLEKEYEKTKSQREMEEKYIVSAWYNMGMTLHKKAAEDRLASTGSGQSFLARQRQATSSRRSYPGHVQPATAR
chain 2: MWPQPRLPPRPAMSEETRQSKLAAAKKKLREYQQRNSPGVPTGAKKKKKIKNGSNPETTTSGGCHSPEDTPKDNAATLQPSDDTVLPGGVPSPGASLTSMAASQNHDADNVPNLMDETKTFSSTESLRQLSQQLNGLVCESATCVNGEGPASSANLKDLESRYQQLAVALDSSYVTNKQLNITIEKLKQQNQEITDQLEEEKKECHQKQGALREQLQVHIQTIGILVSEKAELQTALAHTQHAARQKEGESEDLASRLQYSRRRVGELERALSAVSTQQKKADRYNKELTKERDALRLELYKNTQSNEDLKQEKSELEEKLRVLVTEKAGMQLNLEELQKKLEMTELLLQQFSSRCEAPDANQQLQQAMEERAQLEAHLGQVMESVRQLQMERDKYAENLKGESAMWRQRMQQMSEQVHTLREEKECSMSRVQELETSLAELRNQMAEPPPPEPPAGPSEVEQQLQAEAEHLRKELEGLAGQLQAQVQDNEGLSRLNREQEERLLELERAAELWGEQAEARRQILETMQNDRTTISRALSQNRELKEQLAELQSGFVKLTNENMEITSALQSEQHVKRELGKKLGELQEKLSELKETVELKSQEAQSLQQQRDQYLGHLQQYVAAYQQLTSEKEVLHNQLLLQTQLVDQLQQQEAQGKAVAEMARQELQETQERLEAATQQNQQLRAQLSLMAHPGEGDGLDREEEEDEEEEEEEAVAVPQPMPSIPEDLESREAMVAFFNSAVASAEEEQARLRGQLKEQRVRCRRLAHLLASAQKEPEAAAPAPGTGGDSVCGETHRALQGAMEKLQSRFMELMQEKADLKERVEELEHRCIQLSGETDTIGEYIALYQSQRAVLKERHREKEEYISRLAQDKEEMKVKLLELQELVLRLVGDRNEWHGRFLAAAQNPADEPTSGAPAPQELGAANQQGDLCEVSLAGSVEPAQGEAREGSPRDNPTAQQIMQLLREMQNPRERPGLGSNPCIPFFYRADENDEVKITVI

Variants of: B1
Experiment: coIP (co-immunoprecipitation, blot band intensity quantified)
Conditions: with GM130 (endogenous) [human (endogenous in HeLa)]; HeLa cells, 100 ng/mL nocodazole for 16 hr (+); read off a plot

Row | response [A.U] | Variant
1 | 6.5 | chain 1 S238E S707E
2 | 5.5 | chain 1 S238A S707A
3 | 11 | chain 1 S707E
4 | 16 | chain 1 S707A
5 | 12 | chain 1 S238E
6 | 16 | chain 1 S238A
